Measurements from patent US20230135471A1, “UBIQUITIN VARIANTS WITH IMPROVED AFFINITY FOR 53BP1” (Integrated DNA Technologies, Inc., priority 2021, published 2023).

The substances below were run against 53BP1 fragment (a.a. 1221-1718) fused to an adenylate cyclase fragment (two-hybrid) (UniProt Q12888) (assay: cell-based or functional assay).

Substance | Experiment 1 Average Enrichment | Experiment 1 Rep 1 Enrichment | Experiment 1 Rep 2 Enrichment | Experiment 2 Average Enrichment | Experiment 2 Rep 1 Enrichment | Experiment 2 Rep 2 Enrichment | Percent GFP Positive Rep 1 | Percent GFP Positive Rep 2 | Percent GFP Positive Rep 3
i53 + R54C two-hybrid fusion (designed binder) | 0.06 log2 | 0.24 log2 | -0.12 log2 | -0.07 log2 | -0.43 log2 | 0.29 log2 | – | – | –
i53 + R54F two-hybrid fusion (designed binder) | 0.76 log2 | 1.01 log2 | 0.52 log2 | 0.55 log2 | 0.66 log2 | 0.43 log2 | – | – | –
i53 + R54H two-hybrid fusion (designed binder) | 0.87 log2 | 0.78 log2 | 0.96 log2 | 0.49 log2 | 0.43 log2 | 0.55 log2 | – | – | –
i53 + R54K two-hybrid fusion (designed binder) | 0.3 log2 | 0.07 log2 | 0.54 log2 | -0.22 log2 | -0.16 log2 | -0.29 log2 | – | – | –
i53 + R54M two-hybrid fusion (designed binder) | 0.85 log2 | 0.82 log2 | 0.89 log2 | 0.56 log2 | 0.56 log2 | 0.55 log2 | – | – | –
i53 + R54N two-hybrid fusion (designed binder) | 0.19 log2 | -0.26 log2 | 0.65 log2 | 0.01 log2 | 0.03 log2 | -0.01 log2 | – | – | –
i53 + R54Q two-hybrid fusion (designed binder) | 0.14 log2 | -0.05 log2 | 0.32 log2 | -0.02 log2 | -0.04 log2 | 0 log2 | – | – | –
i53 + R54T two-hybrid fusion (designed binder) | 0.66 log2 | 0.62 log2 | 0.71 log2 | 0.7 log2 | 0.76 log2 | 0.64 log2 | – | – | –
i53 + R74C two-hybrid fusion (designed binder) | 0.81 log2 | 0.64 log2 | 0.99 log2 | 0.65 log2 | 0.68 log2 | 0.63 log2 | – | – | –
i53 + R74E two-hybrid fusion (designed binder) | 0.38 log2 | 0.53 log2 | 0.23 log2 | -0.1 log2 | 0.14 log2 | -0.35 log2 | – | – | –
i53 + R74I two-hybrid fusion (designed binder) | 0.83 log2 | 0.84 log2 | 0.83 log2 | 0.61 log2 | 0.63 log2 | 0.58 log2 | – | – | –
i53 + R74K two-hybrid fusion (designed binder) | 0.12 log2 | 0.04 log2 | 0.21 log2 | 0.13 log2 | 0.1 log2 | 0.17 log2 | – | – | –
i53 + R74L two-hybrid fusion (designed binder) | 1.11 log2 | 1.35 log2 | 0.88 log2 | 0.85 log2 | 0.95 log2 | 0.76 log2 | – | – | –
i53 + R74M two-hybrid fusion (designed binder) | 1.04 log2 | 1.16 log2 | 0.91 log2 | 0.68 log2 | 0.68 log2 | 0.68 log2 | – | – | –
i53 + R74Q two-hybrid fusion (designed binder) | 2.29 log2 | 2.6 log2 | 1.98 log2 | 1.54 log2 | 1.56 log2 | 1.52 log2 | – | – | –
i53 + R74T two-hybrid fusion (designed binder) | 0.33 log2 | 0.4 log2 | 0.26 log2 | 0.31 log2 | 0.25 log2 | 0.38 log2 | – | – | –
i53 + R74V two-hybrid fusion (designed binder) | 1.51 log2 | 1.58 log2 | 1.44 log2 | 0.95 log2 | 1.19 log2 | 0.7 log2 | – | – | –
i53 + S20A two-hybrid fusion (designed binder) | 0.14 log2 | 0.3 log2 | -0.02 log2 | -0.26 log2 | -0.26 log2 | -0.25 log2 | – | – | –

Substance | Experiment 1 Average Enrichment | Experiment 1 Rep 1 Enrichment | Experiment 1 Rep 2 Enrichment | Experiment 2 Average Enrichment | Experiment 2 Rep 1 Enrichment | Experiment 2 Rep 2 Enrichment | Percent GFP Positive Rep 1 | Percent GFP Positive Rep 2 | Percent GFP Positive Rep 3
i53 + S20C two-hybrid fusion (designed binder) | -0.08 log2 | -0.36 log2 | 0.2 log2 | 0.05 log2 | -0.1 log2 | 0.21 log2 | – | – | –
i53 + S20D two-hybrid fusion (designed binder) | -0.43 log2 | -0.14 log2 | -0.72 log2 | 0.5 log2 | 0.83 log2 | 0.18 log2 | – | – | –
i53 + S20N two-hybrid fusion (designed binder) | 0.31 log2 | 0 log2 | 0.61 log2 | -0.25 log2 | 0.12 log2 | -0.61 log2 | – | – | –
i53 + S20W two-hybrid fusion (designed binder) | -0.36 log2 | -0.97 log2 | 0.25 log2 | 0.17 log2 | 0.1 log2 | 0.24 log2 | – | – | –
i53 + S49A two-hybrid fusion (designed binder) | 0.5 log2 | 0.62 log2 | 0.39 log2 | 0.41 log2 | 0.76 log2 | 0.06 log2 | – | – | –
i53 + S49C two-hybrid fusion (designed binder) | 0.6 log2 | 0.95 log2 | 0.24 log2 | -0.18 log2 | -0.04 log2 | -0.31 log2 | – | – | –
i53 + S49D two-hybrid fusion (designed binder) | 0.41 log2 | 0.11 log2 | 0.71 log2 | 0.44 log2 | 0.39 log2 | 0.49 log2 | – | – | –
i53 + S49E two-hybrid fusion (designed binder) | 0.44 log2 | 0.84 log2 | 0.04 log2 | 0.81 log2 | 0.96 log2 | 0.67 log2 | – | – | –
i53 + S49G two-hybrid fusion (designed binder) | 0.02 log2 | 0.27 log2 | -0.23 log2 | -0.31 log2 | -0.57 log2 | -0.05 log2 | – | – | –
i53 + S49I two-hybrid fusion (designed binder) | 0.3 log2 | 0.04 log2 | 0.56 log2 | 0.17 log2 | 0.6 log2 | -0.26 log2 | – | – | –
i53 + S49L two-hybrid fusion (designed binder) | 1 log2 | 0.85 log2 | 1.15 log2 | 0.88 log2 | 0.97 log2 | 0.8 log2 | 18.8% | 13.6% | 17.7%
i53 + S49M two-hybrid fusion (designed binder) | 0.84 log2 | 1 log2 | 0.69 log2 | 0.77 log2 | 0.57 log2 | 0.98 log2 | – | – | –
i53 + S49N two-hybrid fusion (designed binder) | 0.04 log2 | 0.31 log2 | -0.23 log2 | -0.35 log2 | -0.59 log2 | -0.11 log2 | – | – | –
i53 + S49P two-hybrid fusion (designed binder) | 0.78 log2 | 0.65 log2 | 0.91 log2 | 0.58 log2 | 0.71 log2 | 0.44 log2 | – | – | –
i53 + S49V two-hybrid fusion (designed binder) | 0.52 log2 | 0.8 log2 | 0.23 log2 | 0.49 log2 | 0.52 log2 | 0.45 log2 | – | – | –
i53 + S57A two-hybrid fusion (designed binder) | 0.37 log2 | 0.29 log2 | 0.46 log2 | 0.03 log2 | -0.03 log2 | 0.08 log2 | – | – | –
i53 + S57D two-hybrid fusion (designed binder) | 1.22 log2 | 1.05 log2 | 1.39 log2 | 0.86 log2 | 0.89 log2 | 0.83 log2 | – | – | –
i53 + S57E two-hybrid fusion (designed binder) | 0.45 log2 | 0.28 log2 | 0.62 log2 | 0.35 log2 | 0.42 log2 | 0.28 log2 | – | – | –
